T1: human CD73 (Homo sapiens, UniProt P21589)
T1 construct: expressed in transfected cells; stably transfected in method 5.1)
T1 sequence (P21589 27-549): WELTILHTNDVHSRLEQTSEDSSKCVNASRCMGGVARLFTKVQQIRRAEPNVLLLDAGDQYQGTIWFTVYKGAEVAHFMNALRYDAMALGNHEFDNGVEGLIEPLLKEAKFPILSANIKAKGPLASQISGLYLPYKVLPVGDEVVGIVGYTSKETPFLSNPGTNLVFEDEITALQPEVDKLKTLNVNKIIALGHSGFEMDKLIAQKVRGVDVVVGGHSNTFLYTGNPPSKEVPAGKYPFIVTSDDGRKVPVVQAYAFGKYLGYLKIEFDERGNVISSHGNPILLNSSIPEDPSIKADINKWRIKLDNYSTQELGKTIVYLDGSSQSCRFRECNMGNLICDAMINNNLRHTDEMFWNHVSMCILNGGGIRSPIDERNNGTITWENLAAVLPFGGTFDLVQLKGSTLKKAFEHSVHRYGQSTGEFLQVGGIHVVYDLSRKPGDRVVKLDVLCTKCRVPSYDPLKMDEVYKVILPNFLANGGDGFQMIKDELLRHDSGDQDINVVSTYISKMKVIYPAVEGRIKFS

T2: native CD73 on the cell surface of peripheral blood leukocytes (PBMCs) (Homo sapiens, UniProt P21589)
T2 construct: endogenous in cells; host or cells: human PBMCs (B and T lymphocytes)
T2 sequence (P21589 27-549): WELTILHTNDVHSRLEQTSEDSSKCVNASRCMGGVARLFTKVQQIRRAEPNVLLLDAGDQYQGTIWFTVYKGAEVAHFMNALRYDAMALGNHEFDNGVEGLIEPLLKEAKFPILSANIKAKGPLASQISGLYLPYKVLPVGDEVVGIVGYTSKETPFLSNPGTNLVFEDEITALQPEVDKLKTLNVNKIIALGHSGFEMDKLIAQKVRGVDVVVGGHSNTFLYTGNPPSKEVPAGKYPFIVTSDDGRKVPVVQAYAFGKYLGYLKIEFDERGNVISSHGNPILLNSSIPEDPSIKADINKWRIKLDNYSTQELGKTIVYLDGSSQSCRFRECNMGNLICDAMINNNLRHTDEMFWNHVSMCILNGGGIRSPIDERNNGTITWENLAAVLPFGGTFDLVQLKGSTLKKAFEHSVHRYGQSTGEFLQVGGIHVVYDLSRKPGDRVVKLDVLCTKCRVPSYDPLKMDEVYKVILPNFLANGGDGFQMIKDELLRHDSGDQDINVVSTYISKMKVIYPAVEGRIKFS

T3: soluble human CD73 (Homo sapiens, UniProt P21589)
T3 construct: The ectodomain of CD73 (aa 27-549) was expressed as a recombinant protein with a C-terminal His6× tag; His6 (C); made in house; host or cells: transiently transfected HEK cells
T3 sequence (P21589 27-549): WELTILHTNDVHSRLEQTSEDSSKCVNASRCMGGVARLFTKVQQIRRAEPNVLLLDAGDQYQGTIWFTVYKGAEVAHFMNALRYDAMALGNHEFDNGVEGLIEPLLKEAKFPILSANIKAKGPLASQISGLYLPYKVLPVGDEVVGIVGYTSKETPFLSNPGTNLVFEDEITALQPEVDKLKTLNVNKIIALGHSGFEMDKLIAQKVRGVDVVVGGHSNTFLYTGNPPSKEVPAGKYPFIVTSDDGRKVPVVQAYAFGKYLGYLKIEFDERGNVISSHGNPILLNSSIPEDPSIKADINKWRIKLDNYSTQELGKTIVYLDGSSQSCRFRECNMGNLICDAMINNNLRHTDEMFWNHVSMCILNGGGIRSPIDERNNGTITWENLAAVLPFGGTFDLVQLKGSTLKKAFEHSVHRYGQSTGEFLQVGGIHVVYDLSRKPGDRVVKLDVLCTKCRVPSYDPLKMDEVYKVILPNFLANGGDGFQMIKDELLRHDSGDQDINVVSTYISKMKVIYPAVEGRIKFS

T4: CD73-expressing human AML-OCI3 cells (Homo sapiens, UniProt P21589)
T4 construct: CD73-expressing human AML-OCI3 cells (AML cell line); endogenous in cells; host or cells: OCI-AML3 human AML cell line
T4 sequence (P21589 27-549): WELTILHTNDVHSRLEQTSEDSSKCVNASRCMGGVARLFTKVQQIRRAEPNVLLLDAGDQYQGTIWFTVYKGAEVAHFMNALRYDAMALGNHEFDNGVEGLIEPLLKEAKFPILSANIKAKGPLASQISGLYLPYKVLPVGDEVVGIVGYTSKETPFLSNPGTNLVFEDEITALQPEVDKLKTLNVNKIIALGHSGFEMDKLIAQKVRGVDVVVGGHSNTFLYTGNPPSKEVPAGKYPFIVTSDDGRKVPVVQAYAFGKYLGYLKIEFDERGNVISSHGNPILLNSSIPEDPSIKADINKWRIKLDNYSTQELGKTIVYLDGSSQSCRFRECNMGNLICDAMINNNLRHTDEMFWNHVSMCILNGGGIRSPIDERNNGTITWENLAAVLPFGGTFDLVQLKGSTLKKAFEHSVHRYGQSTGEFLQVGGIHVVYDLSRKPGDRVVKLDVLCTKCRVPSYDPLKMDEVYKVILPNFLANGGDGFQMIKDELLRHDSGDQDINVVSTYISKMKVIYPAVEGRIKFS


Tests used:
human CD73 = target: T1, human CD73; experiment: Flow cytometry binding of rabbit IgG hcAbs to human CD73-transfected HEK cells; parameters: key: binding to human (h) and mouse (m) CD73; binding to human (h) and mouse (m) CD73; details: family representative clone; h = binds human CD73, m = binds mouse CD73
Method: HEK cells were co-transfected with expression vectors for green fluorescent protein (GFP) and human CD73, mouse CD73, and a control cell surface protein (CD39). 48 h after transfection, cells were incubated with HEK cell supernatants containing the indicated rabbit IgG hcAbs. Bound antibodies were detected with PE-conjugated anti rabbit IgG secondary antibody.
• 5.1 Untransfected HEK293 cells and HEK293 cells stably transfected with human or mouse CD73 were incubated for 30 min with HEK-6E cell supernatants containing rabbit IgG hcAbs (diluted 1:10 in PBS/0.1% BSA). Following washing with PBS/0.1% BSA, bound antibodies were detected with PE-conjugated goat anti-rabbit IgG polyclonal antibody (711-116-152 Dianova, Hamburg). • 5.2 For dissociation analyses, two separate aliquots of CD73-transfected cells were incubated either with Cell Proliferation Dye eFluor 450 (eBioscience) or with hcAbs for 20 min at RT. Cells were washed four times, mixed at a 1:1 ratio and further incubated at RT for 120 min before staining of bound antibodies with PE-conjugated goat anti-rabbit IgG polyclonal antibody. The dissociation of hcAbs from the target cells and association with the eFluor 450 labeled cells was analyzed by flow cytometry using the FlowJo software (Treestar). • 5.3 For epitope analyses, cells were preincubated with excess human IgG hcAbs (10 μl HEK-6E cell supernatant/100 μl PBS/0.1% BSA) for 30 min at RT before addition of Nb-rabbit IgG hcAbs (1 μl HEK-6E cell supernatant/100 μl PBS/0.1% BSA) and further incubation for 20 min at RT and staining with PE-conjugated anti-rabbit polyclonal antibody (711-116-152 Dianova, Hamburg). Cells were washed and analyzed by flow cytometry on a BD-FACS Canto. Data were analyzed using the FlowJo software (Treestar).
The binding specificities of the purified hcAbs were determined by flow cytometry using HEK cells transiently co-transfected with expression vectors for GFP and either mouse CD73, human CD73 or a control protein (CD39). 1×10^6 cells were incubated with 10 μl of the Nb-rbIgG hcAb containing HEK-6E cell supernatants for 30 min at 4° C. After washing, the cells were incubated with PE-conjugated anti-rabbit IgG polyclonal antibody (711-116-152 Dianova, Hamburg) and washed twice. The cells were resuspended in PBS and analyzed by flow cytometry on FACS Canto or FACS Celesta (BD Biosciences, Heidelberg). Data evaluation was conducted using the software FlowJo (Treestar, Stanford, US).

[1] = target: T2, native CD73 on the cell surface of peripheral blood leukocytes (PBMCs); experiment: Flow cytometry binding of hcAbs to native CD73 on blood leukocytes; details: lymphocyte gate, co-stained for CD3 and CD19
Method: Purified hcAbs were analysed for binding to native CD73 on the cell surface of peripheral blood leukocytes (PBMCs) by flow cytometry. To this end purified human PBMCs were incubated for 30 min at RT with 10 μl of rabbit hcAb-containing HEK-6E cell supernatants and bound antibodies were detected with a FITC conjugated anti rabbit IgG secondary antibody. To distinguish between B lymphocytes most of which express high levels of cell surface CD73, and T lymphocytes a subset of which express moderate levels of cell surface CD73, cells were co-stained with PE-conjugated mouse anti-human CD3 mAb (UCHT1) and a PerCP/Cy5.5-conjugated mouse anti-human CD19 mAb (HIB19). After washing the cells, cells were analyzed by flow cytometry. A hcAb binding only to murine CD39 (SB30) was used as a negative control. […] Gating was performed on lymphocytes on the basis of forward and side scattered light.

soluble human CD73 [2] = target: T3, soluble human CD73; experiment: Off-rates of soluble CD73 from immobilized Nb-rbIgG hcAb on Octet BLI; format: binding; details: soluble human CD73 ectodomain 200 ng/μl as analyte; Nb-rbIgG hcAb immobilized on protein A biosensor
Method: The binding off-rate constants of bivalent hcAbs to human and mouse CD73 protein were determined by […] kinetic analysis on Octet RED96 (ForteBio). Immobilization of rabbit IgG hcAbs on the protein A-biosensor surface was done in HEK-6E cell supernatant, and regeneration of analytes was done with 100 mM Glycin pH=2.5. Recombinant mouse or human CD73 ectodomain was used as analytes and tested at a saturating dose of 200 ng/μl. Sensorgrams were fitted using least square regression in association than dissociation Model in Prism8 (Graphpad).

[3] = target: T4, CD73-expressing human AML-OCI3 cells; experiment: AMP degradation by cell bound CD73, luminometric AMPglow assay; format: cell-based; details: CD73 expressed on the cell surface of OCI-AML3 cells; compared with dimeric SB116 or SB188 Fc constructs
Method: AMP was added and AMP degradation was measured using the luminometric AMPglow assay. Data analyses were performed using Prism (Graphpad).
(§1) Soluble recombinant human CD73 or CD73-expressing human […] cells were incubated with CD73-specific dimeric clones SB116-rbFc, SB188-rbFc, biparatopic SB116-188-Alb trimers or with non-binding L-10e-rbFc clone (control). AMP was added and AMP degradation was measured using the luminometric AMPglow assay. Data analyses were performed using Prism (Graphpad).

soluble human CD73 [4] = target: T3, soluble human CD73; experiment: AMP degradation by soluble CD73, luminometric AMPglow assay; format: biochemical; details: CD73 present as soluble enzyme; compared with dimeric SB116 or SB188 Fc constructs
Method: as §1

Row | specificity (human CD73) | Kdis (soluble human CD73 [2]) [s⁻¹] | Molecule | staining of native CD73 on human PBMCs [1] | blockade of CD73-mediated AMP degradation [3] | blockade of CD73-mediated AMP degradation (soluble human CD73 [4])
1 | h | 0.00036 | SB142: CD73-specific alpaca VHH clone, family 2 in Tables 1-2, SEQ ID NO:73; tested as rabbit IgG hcAb (antibody, left off: a dimerising Fc or GST, tested as rabbit IgG hcAb) heavy: QVQLVESGGGLVQPGGSLRLSCAASGFTFINYHMSWLRQAPGKGLEWVSEIHSRGDITSYTNSVKGRFTISRDNAKNTLYLQMNSLKFDDTAVYYCARSRDLFGEGEYDYWGRGTQVTVSS | on most B cells and on a subset of T cells | – | –
2 | – | – | SB116-188-Alb: biparatopic SB116-188-Alb trimers, anti-CD73 nanobody heterotrimer (protein, left off: small tags and cut ends; another chain or arm of the molecule, biparatopic SB116-188-Alb trimers, anti-CD73 nanobody heterotrimer) chain (part 1 of 2): QVKLQESGGGRVQTGGSLRLSCAASGISFSITTMYWYRQAPGEQRQLVALITDRGNTYYVDSVKGRFTISRDDSKNTVYLQMNDLKPEDTAVYFCNSIPGNDWGQGTQVTVSS chain (part 2 of 2): QVQLVESGGGLVQAGGSLRLSCAASGFTFINYHMSWLRQAPGKEREFVAEIHSRGDITSYTNSVKGRFTISRDNAKNTVYLQMNSLKPEDTAVYYCARSRDLFNEGEYDYWGRGTQVTVSS | – | less potent compared to dimeric SB116 or SB188 Fc constructs | enhanced blockade of CD73-mediated AMP degradation when compared to dimeric SB116 or SB188 Fc constructs
